These results are taken from the nanobody polyreactivity screen of Harvey et al. (2022).

A short description of the data set: yeast display, Sf9 membrane polyspecificity reagent, FACS + sequencing; frameworks hold sequencing errors. Put shortly: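 Galactose induction of a Saccharomyces cerevisiae BJ5465 synthetic nanobody display library ran 36–48 hours. The cells were then stained for 1 hour at 4 °C with 10% biotinylated, detergent-solubilized Sf9 membrane reagent, pulled down on streptavidin microbeads and FACS-sorted into low and high (top ~1%) gates on expression and reagent-binding fluorescence. Labels for polyreactivity follow the gate of origin.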
Take “QVQLVESGGGLVQAGGSLRLSCAASGSIFEYYAMGWYRQAPGKEREFVAAISDNGDSTYYADSVKGRFTISRDNAKNTVYLQMNSLKPEDTAVYYCAVRKAYQYGFYYWGQGTQLTVSS”: the “polyreactivity (PSR sort gate)” value is “low polyreactivity”.
The value for “QVQLVESGGGLVQAGGSLRLSCAASGRTLATYAMGWYRQAPGKERELVADISWRGGTTYYADSVKGRFTISRDNAKNTVYLQMNSLKPEDTAVYYCAAVRKQGSGFDYWGQGTQVTLSS” was “high polyreactivity”.
Consider “QVQLVESGGGLVLAGGSLRLSCAASGGIFYGYAMGWYREAPGKEREMVAAISSTGGRTYYADSVKGRFTISRDNAKNTVYLQMNSLKPEETAVYYCAAEDFTRQFEYWGQGTQVTVSS”, for which the “polyreactivity (PSR sort gate)” value is reported as “low polyreactivity”.
For the sequence “QDHHVESGGGLVQARGTLRLSCAASGIIYSYYAMGWFRQAPGKEWELVAAITASGGSTYYADSVKGRFTISRDNAKNTVYLQMNSLKPQDTGVSYCAAGSFFLHLIGYSTVSYGRNYWGQGTQVTVAS”, the “polyreactivity (PSR sort gate)” value is reported as “high polyreactivity”.
On to “QVQLVESGGGLVQAGGSLRLSCAASGRIFGLYAMGWYRQAPGKERELVAAITKRGGTTYYADSVKVRFTISRDNAKNTVYLQMKSLKPEDTAVYYCAAKRSVLRTADYDYWGQGTQVTVSS”, for which the “polyreactivity (PSR sort gate)” value is “high polyreactivity”.
In the case of “QLQLVESGGGLVQAGGSLRLSCAASGRIRYIAIGWYRQAPWKERELVAAITSSGGSTYYADSVKGRFTISRDNAKYTVDLQMNRLKPEDTAVYYCNAVASLSVDYWGQGTQVTVSS”, the “polyreactivity (PSR sort gate)” value is on record as “high polyreactivity”.
For “QVQLVDSGGGLVQAGGSLRLSCAASGLIFLYYAMGWYRQAPGKERELVAAISSSGSTYYADSVKGRFTISRDNAKNTVYLQMNSLKPEDTAVYYCAARWTRNYGMNYWGQGTQVTVSS”, the “polyreactivity (PSR sort gate)” value is “high polyreactivity”.
As for “QVQLVESGGGLVQAGGSLRLSCAASGSTFSRYAMGWYRQAPGKERELVAAITYRGARTYYADSVKGRFTISRDNAKNTVYLQMNSLKPEDTAVYYCNTVPPPYNFRYGYWGQGTQVTVSS”, the “polyreactivity (PSR sort gate)” value is “high polyreactivity”.
“QVQLVESGGGLVQAGGSLRLSCAASGRIFGMYTKGWYRQETGKETELVAAINTGGSTYYADSVKGRFTISRDNAKNTVYLQMNSLKPEDTAVYYCNAETGWPWIYHYDYWGQGTQVTVSS”: the “polyreactivity (PSR sort gate)” value was “low polyreactivity”.
As for “QVQLVESGGGLVQAGGSLRLSCAASGSICYDDMGWYSQAPGKERELVAAITWSGGSTYYADSVKGRFTISRDNAKNTVYLQMNSLKPEDTAVYYCAAIFGYGSTWWRWGKDDYWGQGTQVTVSS”, the “polyreactivity (PSR sort gate)” value is recorded as “high polyreactivity”.
As for “QVQLVESGGGLVKEGGSLRLSCAASGSIFLQYAMGWYRQAPGKERELVAGISLRGCSTYYADSVKGRFTISRHNAKNTVYLQLNSLKPEDTAVYYCAADVIVTVETYTSGPSFTEYDYWGQGTQVTVSS”, the “polyreactivity (PSR sort gate)” value is “low polyreactivity”.
Take “QVQLVESGGGLVQAGGSLRLSCAASGFIYSSNAMGWYRQAPGKERELVAAISSSGGRTYYAVSVKGRFTISRDNAKNTVYLQMNRLKPEDTAVYYCNAYPRSRGSANDWGQGTQVPVSS”: the “polyreactivity (PSR sort gate)” value was “high polyreactivity”.
Take “QVQLVESGGGLVQAGGSLRLSCAPSVRTFQYYAMGWYRPAPGKERELVAAINQGGGRTYYADSVKGRFTISRDTAKNTVYLQMNSLKPEDTAVYYCAADGLSKFDYWGQGTQVTVSS”: the “polyreactivity (PSR sort gate)” value was “low polyreactivity”.
“QVQLEESGGGLVQAGGSLRLSCAASGRTFIYYAMGWYRQATGKEREFVAAITKSGGTTYYADSVKGRFTISRHNAKNTVYLQMNSLKPEDTAVYYCAKTTRRGFALYDYWGQGTQVTVSS”: the “polyreactivity (PSR sort gate)” value is on record as “high polyreactivity”.
Turning to “QDQLGESGGGLVQAGGSLRLSCAASGLTFYFYAMGWYRPAPGKEREFVATISFSGGSTYYADSVKGRFTISRDNAKNTVYIQMNSLKPEDTAVYYCNAESDYYWYPYNYWGQGTQVTVSS”, the “polyreactivity (PSR sort gate)” value is “low polyreactivity”.
For the sequence “QVQHVESGGGLVQAGGSLRLSCAASGSIFGVYDMGWYRQAPGKERELVAAISWRGGSTYYADSVKGRFTISRDNAKNTVYLQMNSVKPEDTAVYYCNALGVAEYDWGQGTQVTVSS”, the “polyreactivity (PSR sort gate)” value is on record as “low polyreactivity”.
Consider “QVQLVESGGGLVQAGGSLRLTCAASGSIFWWYGVGWYRQAPGKERELVADITSGGGTYYADSVKGRFTISRDNAKNTVYLQMNSLKPEDTAVYYCAADDRAYRFDYYFDYWGQGTQVTVSS”, for which the “polyreactivity (PSR sort gate)” value was “low polyreactivity”.
“QVQLVESGGGLVQAGGSLRLTCAASGYTFRRTGMGWYRQAPGKERELVAAITNGGSTKYADSVKGRYTISRDNAKNTVYLQMNSLKPEDTAVYDCFYYVYAYDYWGQGTQVTLSS”: the “polyreactivity (PSR sort gate)” value was “high polyreactivity”.
In the case of “QVQLVESGGGLVQAGGSLRLRCAASGTFYLYAMGWYRQAPWKQRELVAAISGSGSTNYADSVKGRFTISRDNAKNTVYLQMNSLKPEDTAVYYCAAYQRYDSLTGARYEYDYWGQGTQVTVSS”, the “polyreactivity (PSR sort gate)” value is reported as “low polyreactivity”.
Turning to “QVQLVESGGGLVQAGGSLRLSCAASGSIFVYYTMGWYRKAPGKERELVASIDSGDRTNYADSVKGRFTISRDNAKNTVYLQMNSLKPEDTAVYYCAARHSRSWRFNSRRRYGYWGQGTQVTVSS”, the “polyreactivity (PSR sort gate)” value is listed as “high polyreactivity”.
The value for “QVQLVESGGGLVQAGGSLRLSCASSGRTFPAYAMGWYRPAPGKERELVAAISSSGSRTYYAASVKGRFTISRDNAKNTVYLQMNRLIPEDTAVYYCAARGGRRQKVNRDDYWGQVTQVTVSS” was “high polyreactivity”; that for “QDQLVESGGGLVQAGGSLRLSCAASGIIFKFNVMGWYRQAPGKERELVAAISTGGSTYYADSVKGRFTISRDNAKNTVYLQMNSLKPEDTAVYYCNAVSPLSIWSSRDGWYGYWGQGTQVTVSS” was “high polyreactivity”.
As for “QVQHVESVGGLDQAGVSLRLSSSASGITFSYNAMGCSRQAPGKESEFVAAISSNSDSTYYADSVKGRFTISRDNAKNTVYLQMNSLKPEDTAVYYCAAETPDAPDYSGFYYWGQGTQVTVSS”, the “polyreactivity (PSR sort gate)” value is listed as “low polyreactivity”.
For the sequence “QVQLVESGGGLVQAGGSLSLICAASGSTLATYTMGGYRQAPGKERELVAAISFGGSTYYADSVKGRYTISRDNAKNTVYLQMISLKPEDTAVYYCAVYGDSYWGAYYYSDGYWGQGTQVTVSS”, the “polyreactivity (PSR sort gate)” value is recorded as “low polyreactivity”.
For the sequence “QVQLVESGGGLVQAGGSLRLSCAASGFTFYGNAMGWYRQAPGKERELVSAISYNGGSTYYADSVKGRFTISRDNAKNTVYLQMNSLKPEDTAVYYCAAGYYWQYTSSSAQYAYDYWGQGTQVTVSS”, the “polyreactivity (PSR sort gate)” value is “low polyreactivity”.
For “QVQLVESGGGLVQAGGSLRLSCAASGRTFNAMGWSRQAPGKERELVASISRRGGSTSYADSVKGRFTISRDNAKNTVYLQMYSLKPEDTAVYYCAARVGWVRYGYWGQGTQVTVSS”, the “polyreactivity (PSR sort gate)” value was “low polyreactivity”.
The value for “QVQLVESGGGLVQAGGSLRLSCAASGSTIKSNVLGWYRQAPGKERELVAAISSGDSTYYADSVKGRFTISRDNGKNTVYFQLNSLKPVDTAVFYCAARLGLQLVDTPDNDYWGQGTEVTVSS” was “low polyreactivity”; that for “QVQLVESGGALVQAGGSHRLSCAASGRTFHFNAMGWYRPATGKERELVAAITNSGGRTSYADSVKGRFTISRDNAKNTVYLQMNSMKPEDTAVYYCNVEVTYSSGKYDYWGPGTQVTVSS” was “low polyreactivity”.
For “QVQLVESGGGLVQAGGSLRLSCAAYEFIFARNGMGWSRQAPGKERELVAAITNSGSTYADSVKGRFTISRDNAKNTVYLQMNSLKPEDTAVYYCNKDPGNVSSYNGGGYWGQGTQVTVSS”, the “polyreactivity (PSR sort gate)” value is recorded as “low polyreactivity”.
In the case of “QVQHVDSGGGLFQAAGSLRLSCAASGGTFSFYTMGWSRQGPGKERELVAAIDSTGRTNYADSVKGRFTISRDKAKNTVYLQMNSLKPEDSAVYYCSAGPPRADYDYWGQGTQVTVSS” it was “low polyreactivity”; in that of “QVQLVESGGGLVQAGGSLSLSCAASGRTFSANTMGWSRQAPGKERELVAAISKSGGSTYYADSVKGRFTISRDNAKNTVYLQMNSLKPEDTAVYYCAARTSGYWYSYGSWGQGTQVTVSS”, “high polyreactivity”; in that of “QVQLVESGGGLVQAGGSLRLSCAASGRIFWYYDMGWYRQAPGKERELVAAITSGGRTYYADSVKGRFTISRDNAKNTVYLQMNRLKPEDTAVYYCAAEGFYTTGSPYSGGLDYWGQGTQVTVSS”, “low polyreactivity”.
The value for “QVQLVESGGGLVQAGGSHRLSCAASGFTFGRYPMGWYRQAPGKERELVAAISSSGSSTYYSDSVKGRFTISRDNAKNTVYLQMNSLKQEDTAVYYCAAAIYVSDRHTYNYWGQGSQVTVSS” was “high polyreactivity”.
Consider “QVQLVESGGGLVQAGGSLRLSCAASGFIFYRYTMGWYRQAPGKERELVAAITSAGSTYYADSVKGRFTISRDNAKNTVYLQMNSLKPEDTAVYYCNADSTWGGYGFDYWGQGTQVTVSS”, for which the “polyreactivity (PSR sort gate)” value is “low polyreactivity”.
In the case of “QVQLVESGGGLVQAGGSLRLRCAASGSTFGRNTMGWYRQAPGKERELVAAISKSGGYTRYADSVKGRFTISRDNAKNTVYLQMNSLKPEDTAVYYCAARVYSLGYGGDYWGQGTQVTVSS” it was “high polyreactivity”; in that of “QVQLVESGVGLVQAGGSLRLSCAASGRLFQYYAMGWYRQAPGKERELVASISGTGGSTYYADSVKGRFTISRDNAKNTVYLQMNSLKPEDTAVYYCAVRVKLQYWREYNYWGQGTQVTVSS”, “high polyreactivity”.
With “QVQLVESGGGLVQAGGSLRLSCAASGIIFYKYSMGWYRQAPGKERELVAAITSGGGRTYYADSVKGRFTISRDNAKITVDLQMNSLKPEDTAVYYCAATRPATYAAYDYWGQGTQVTVSS”, the “polyreactivity (PSR sort gate)” value is “high polyreactivity”.
“QVQLVESGGGLVQAGGSLRLSCAASGRTFLSNAMGWYRQEPGKERELVAAINSGDSTYYAYSVKGRFTISRYNAKNTVYLQMNSLKPEDTAVYYCAAAFYYRRMYYWGKGTQVTVSS”: the “polyreactivity (PSR sort gate)” value is given as “high polyreactivity”.
The value for “QVQLVESWGGLVQAGGILRLSCASYGFIFPIYAMGWYIQAPGKESELVALIRSGGSTYYADSVKGRFTISRDNAKNTVYLQMHSRKPEDTAVYYCKAKRYGMWGAAGRVGYDYWGQGTQVTVSS” was “high polyreactivity”.
Turning to “QVQLVESGGGLVQAGGSLRLSCAASGRIFKVYTMGWYRQAPGKERELVATITRSGTSTYYADSVKGRFTISRDIAKNTVYLQMNSLKPEDTAVYYCARLVGYKFSYDYWGQGTQVTVSS”, the “polyreactivity (PSR sort gate)” value is “high polyreactivity”.
With “QVQLVESGGGIVQAGGSLRLSCAASGGTFHYYAMGWYRQAPGKERELVAAINRSGDSTYYADSVKGRFTISRDNSKNTVYLQMNSLKPEDTAVYYCAVSYYGADGNPFPHDYWGQGTQVTVSS”, the “polyreactivity (PSR sort gate)” value was “low polyreactivity”.
